Here are results for seven molecules from paper PMC6638984, “Increased association between Epstein-Barr virus EBNA2 from type 2 strains and the transcriptional repressor BS69 restricts EBNA2 activity” (PLoS Pathogens, 2019).

This assay has as its target T1, BS69CC-MYND (BS69 amino acid 480–602, CC-MYND domain) (Homo sapiens, UniProt Q15326).
T1 construct: The BS69 CC-MYND domain (amino acids 480–602) was amplified from pCI-BS69; GST (N, cleaved yes); 6xHis (N, cleaved yes); made in house; host or cells: E. coli Rosetta 2 (DE3) pLysS
T1 sequence (Q15326 480-602): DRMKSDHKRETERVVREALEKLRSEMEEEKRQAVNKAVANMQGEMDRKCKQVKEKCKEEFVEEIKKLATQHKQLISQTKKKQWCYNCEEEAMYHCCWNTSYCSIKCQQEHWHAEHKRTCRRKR
The assay is described as follows: Isothermal titration calorimetry (ITC) of EBNA2 peptides and polypeptides binding to BS69CC-MYND. The following applies: mean ± SD of 3 independent experiments; for Kd: pH 7.5, 29 injections of 1.3 μl 0.3 mM EBNA2 polypeptide into 0.1 mM BS69CC-MYND; for -TΔS, event 1, two-site model / -TΔS, event 2, two-site model / n value, event 1, two-site model / n value, event 2, two-site model / ΔG, event 1, two-site model / ΔG, event 2, two-site model / ΔH, event 1, two-site model / ΔH, event 2, two-site model: 29 injections. The source says: We hypothesised that the impaired gene activation and growth maintenance properties of type 2 EBNA2 may be the result of increased binding to BS69 as a result of the aspartate to serine amino acid difference adjacent to BS69 binding motif 2. […] We used isothermal titration calorimetry (ITC) to determine the affinity of peptide binding to the C-terminal region of BS69 (amino acid 480–602) comprising the CC-MYND domain that we expressed and purified from E.coli (Fig 1B and 1C). […] The difference in binding between type 1 and type 2 EBNA2 motif 2 peptides could be influenced by both the aspartate to serine change and differences in two other amino acids present in the sequence (Fig 1B and 1C).
The BS69 CC-MYND domain (amino acids 480–602) was amplified from pCI-BS69 containing the full length human BS69 sequence (gift from Dr Stéphane Ansieau) and cloned using SLIC into the SmaI and HindIII sites of pET49b+ to generate a construct expressing an N-terminal GST-6x Histidine tag BS69CC-MYND fusion protein (S2 Table).
Four commercially synthesized peptides (Peptide Synthetics) were used for ITC. These included BS69 binding motif 2 of type 1 EBNA2 (435–445) or type 2 EBNA2 (402–412) and putative BS69 binding motif 3 of type 1 EBNA2 (445–455) or type 2 EBNA2 (412–422).
Frozen protein was quickly thawed using running water and dialysed overnight at 4°C using Slide-A-Lyzer MINI Dialysis Units (Thermo Scientific) against ITC buffer (20mM Tris-HCl, 100mM NaCl and 1mM TCEP, pH 7.5). The next day, protein samples were centrifuged at 13000 rpm for 10 mins at 4 °C and the concentration was determined by NanoDrop spectroscopy (NanoDrop Technologies) with their respective molecular weights and extinction coefficients. EBNA2 peptides (1mM) and polypeptides (type 1, 0.3 mM and type 2, 0.6 mM) were titrated against BS69CC-MYND (0.1mM) at 25°C using a MicroCalTM iTC200 instrument (Malvern). For peptides, 13 x 3.0 μl injections were used for titration. For EBNA2 polypeptides 19 x 2.0 μl or 29 x 1.3 μl injections were used for titration. ITC data were corrected for non-specific heat and analysed using MicroCal Origin 7.0. The experiments were performed in triplicate alongside a control experiment with no BS69CC-MYND (buffer only in the cell). All polypeptides were used within 24 hrs of dialysis into ITC buffer.
A general note: ITC needs no label: the signal is the heat of the interaction.

Where [1] appears, read: 25°C, pH 7.5, peptides 13 injections, polypeptides 19 injections.
Where [2] appears, read: 25°C, read-out: KD1 (binding event 1), two-site (two event) binding model.
The mark [3] stands for this setting: 25°C, read-out: KD2 (binding event 2), two-site (two event) binding model.

Numbering of substitutions follows the chain as printed. Names may count otherwise. Like-named read-outs stand apart in the source and are kept apart here.

B1: T2 EBNA2_348-412: type 2 EBNA2 polypeptide, amino acids 348–412, expressed and purified from E.coli (protein)
chain: SMPQLSPVVSLHQGQGPENSPTPGPSTAGPVCRVTPSATPDISPIHEPESSDSEEPPFLFPSDWY
modifications: left off: His6, N-terminal, cleaved
notes: type 2 EBNA2 polypeptide, amino acids 348–412, expressed and purified from E.coli
For the molecule B1, under setting [1], the “-TΔS, one-site model” value was 14.4 kcal/mol and the “ΔG, one-site model” value is recorded as -8.08 ± 0.06 kcal/mol. Further, the “-TΔS, one-site model” value (25°C, pH 7.5, peptides 13 injections, polypeptides 19 injections, listed as T2 EBNA2348-412) was 14.4 ± 2.48 kcal/mol.

B2: EBNA2_348-422 SD + m3 T1: type 2 EBNA2 polypeptide 348–422 containing both the SD and motif 3 (PSIDP) mutations (protein)
chain: SMPQLSPVVSLHQGQGPENSPTPGPSTAGPVCRVTPSATPDISPIHEPESSDSEEPPFLFPDDWYPPSIDPAELD
modifications: left off: His6, N-terminal, cleaved
notes: type 2 EBNA2 polypeptide 348–422 containing both the SD and motif 3 (PSIDP) mutations
B2: the “-TΔS, event 1, two-site model” value turned out to be 21.0 ± 0.95 kcal/mol; the “-TΔS, event 2, two-site model” value is given as -4.62 ± 2.01 kcal/mol; the “n value, event 1, two-site model” value turned out to be 0.20 ± 0.01; the “n value, event 2, two-site model” value is 0.20 ± 0.08. Also, the “ΔG, event 1, two-site model” value is given as -11.1 ± 0.17 kcal/mol; the “ΔG, event 2, two-site model” value is listed as -9.44 ± 0.35 kcal/mol; the “ΔH, event 1, two-site model” value is recorded as -32.1 ± 1.12 kcal/mol; the “ΔH, event 2, two-site model” value is recorded as -4.82 ± 1.69 kcal/mol. For the same molecule, under setting [2], the Kd worked out at 8 nM. Also, the Kd under setting [3] came out at 136 nM.

B3: T2 EBNA2_348-422 m3 T1: T2 EBNA2_348-422 with motif 3 PTLEP replaced with the type 1 sequence PSIDP (protein)
chain: B2 chain with D62S
modifications: left off: His6, N-terminal, cleaved
Regarding B3, under setting [1], the “-TΔS, one-site model” value is reported as 19.5 ± 1.27 kcal/mol; the “ΔG, one-site model” value was -7.80 ± 0.04 kcal/mol; the “ΔH, one-site model” value is -27.3 ± 1.23 kcal/mol.

B4: EBNA2_348-422 SD + m3 mt: type 2 EBNA2 polypeptide 348–422 containing both the SD and motif 3 (ATAEA) mutations (protein)
chain: B2 chain with P67A, S68T, I69A, D70E, P71A
modifications: left off: His6, N-terminal, cleaved
notes: type 2 EBNA2 polypeptide 348–422 containing both the SD and motif 3 (ATAEA) mutations
Turning to B4, the “-TΔS, event 1, two-site model” value came to 20.4 ± 2.24 kcal/mol; the “-TΔS, event 2, two-site model” value was -1.95 ± 2.10 kcal/mol; the “n value, event 1, two-site model” value is on record as 0.20 ± 0.00; the “n value, event 2, two-site model” value is listed as 0.19 ± 0.01. Besides, the “ΔG, event 1, two-site model” value is on record as -9.60 ± 0.21 kcal/mol; the “ΔG, event 2, two-site model” value is on record as -11.3 ± 0.12 kcal/mol; the “ΔH, event 1, two-site model” value is listed as -31.7 ± 2.14 kcal/mol; the “ΔH, event 2, two-site model” value is recorded as -7.65 ± 1.89 kcal/mol. For the same molecule, the Kd under setting [2] was 5 ± 1 nM. Further, the Kd under setting [3] stood at 94 ± 28 nM.

B5: T2 EBNA2_348-422 motif 3 mt: T2 EBNA2_348-422 with motif 3 mutated from PTLEP to ATAEA (protein)
chain: B2 chain with D62S, P67A, S68T, I69A, D70E, P71A
modifications: left off: His6, N-terminal, cleaved
notes: T2 EBNA2_348-422 with motif 3 mutated from PTLEP to ATAEA
As to B5, the “-TΔS, one-site model” value under setting [1] is given as 17.2 kcal/mol and the “-TΔS, one-site model” value (25°C, pH 7.5, peptides 13 injections, polypeptides 19 injections, listed as T2 EBNA2 348-422 m3 mt) is reported as 17.2 ± 0.79 kcal/mol. The “ΔG, one-site model” value under setting [1] was -8.50 ± 0.07 kcal/mol.

B6: T2 EBNA2_348-422: type 2 EBNA2 polypeptide containing motif 1, 2 and 3, amino acids 348–422 (protein)
chain: B2 chain with D62S, S68T, I69L, D70E
modifications: left off: His6, N-terminal, cleaved
As to B6, the “-TΔS, event 1, two-site model” value is recorded as 23.1 ± 0.14 kcal/mol; the “-TΔS, event 2, two-site model” value is on record as -8.04 ± 0.25 kcal/mol; the “n value, event 1, two-site model” value was 0.23 ± 0.01; the “n value, event 2, two-site model” value was 0.21 ± 0.00. In addition, the “ΔG, event 1, two-site model” value is -11.0 ± 0.28 kcal/mol; the “ΔG, event 2, two-site model” value is on record as -9.62 ± 0.16 kcal/mol; the “ΔH, event 1, two-site model” value is reported as -34.1 ± 0.14 kcal/mol. Also, under setting [2], the Kd was 9 nM. The Kd under setting [3] is 91 nM. Under setting [1], the “-TΔS, one-site model” value is on record as 45 kcal/mol and the “ΔG, one-site model” value is given as -8.20 ± 0.18 kcal/mol. The “-TΔS, one-site model” value (25°C, pH 7.5, peptides 13 injections, polypeptides 19 injections, listed as T2 EBNA2 348-422) worked out at 45.0 ± 1.84 kcal/mol.

B7: T2 EBNA2_348-422 SD: type 2 EBNA2 polypeptide 348–422 with an S409D mutation (protein)
chain: B2 chain with S68T, I69L, D70E
modifications: left off: His6, N-terminal, cleaved
notes: type 2 EBNA2 polypeptide 348–422 with an S409D mutation
As to B7, the “-TΔS, event 1, two-site model” value worked out at 11.6 ± 0.31 kcal/mol; the “-TΔS, event 2, two-site model” value stood at 0.47 ± 1.33 kcal/mol; the “n value, event 1, two-site model” value came to 0.22 ± 0.01; the “n value, event 2, two-site model” value is listed as 0.20 ± 0.00. For the same molecule, the “ΔG, event 1, two-site model” value was -11.0 ± 0.21 kcal/mol; the “ΔG, event 2, two-site model” value is listed as -9.14 ± 0.08 kcal/mol; the “ΔH, event 1, two-site model” value is recorded as -22.7 ± 0.29 kcal/mol; the “ΔH, event 2, two-site model” value was -9.62 ± 1.32 kcal/mol. In addition, under setting [2], the Kd was found to be 8 ± 3 nM. The Kd under setting [3] is 200 ± 26 nM.
